Reference: patent US20060134719

What was measured:
[1] = target: T1, C-type natriuretic peptide 22 (CNP 22), P23582
T1 chain: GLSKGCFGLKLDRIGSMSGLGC

[2] = target: neuropeptide Y (NPY), P01303
[3] = target: T2, α-melanocyte stimulating hormone (α-MSH), P01189 (not fully specified)
T2 chain: SYSMEHFRWGKPV

[4] = target: T3, vasoactive intestinal peptide (VIP), P01282
T3 chain: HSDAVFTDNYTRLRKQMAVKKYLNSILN

[5] = target: T4, melanin-concentrating hormone (MCH), P20382
T4 chain: DFDMLRCMLGRVYRPCWQV

[6] = target: T5, A-type natriuretic peptide (ANP), P01160
T5 chain: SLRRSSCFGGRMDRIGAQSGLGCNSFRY

B1: purified signal-FLAG-ARS-extracellular enzyme after the treatment with trypsin beads (protein)
chain: STQGFHVDHTAELRGIRWTSSLRRETSDYHRTLTPTLEALFVSSFQKTELEASCVGCSVLNYRDGNSSVLVHFQLHFLLRPLQTLSLGLEEELLQRGIRARLREHGISLAAYGTIVSAELTGRHKGPLAERDFKSGRCPGNSFSCGNSQCVTKVNPECDDQEDCSDGSDEAHCECGLQPAWRMAGRIVGGMEASPGEFPWQASLRENKEHFCGAAIINARWLVSAAHCFNEFQDPTKWVAYVGATYLSGSEASTVRAQVVQIVKHPLYNADTADFDVAVLELTSPLPFGRHIQPVCLPAATHIFPPSKKCLISGWGYLKEDFLVKPEVLQKATVELLDQALCASLYGHSLTDRMVCAGYLDGKVDSCQGDSGGPLVCEEPSGRFFLAGIVSWGIGCAEARRPGVYARVTRLRDWILEATTKASMPLAPTMAPAPAAPSTAWPTSPESPVVSTPTKSMQALSTVPLDWVTVPKLQGIFGAER
- cleavage of the substrate peptide, HPLC analysis after reaction at 37° C. for 16 hours [1]: the enzyme sample selectively cleaved VIP, NPY, ANP, CNP, α-MSH, and MCH
- cleavage of the substrate peptide, HPLC analysis after reaction at 37° C. for 16 hours [2]: the enzyme sample selectively cleaved VIP, NPY, ANP, CNP, α-MSH, and MCH
- cleavage of the substrate peptide, HPLC analysis after reaction at 37° C. for 16 hours [3]: the enzyme sample selectively cleaved VIP, NPY, ANP, CNP, α-MSH, and MCH
- cleavage of the substrate peptide, HPLC analysis after reaction at 37° C. for 16 hours [4]: the enzyme sample selectively cleaved VIP, NPY, ANP, CNP, α-MSH, and MCH
- cleavage of the substrate peptide, HPLC analysis after reaction at 37° C. for 16 hours [5]: the enzyme sample selectively cleaved VIP, NPY, ANP, CNP, α-MSH, and MCH
- cleavage of the substrate peptide, HPLC analysis after reaction at 37° C. for 16 hours [6]: the enzyme sample selectively cleaved VIP, NPY, ANP, CNP, α-MSH, and MCH
